In patent US12679878B2, “CRF2 receptor agonists and their use in therapy” (SANOFI, priority 2020, dated 2026) one finds EC50, EC50 [nM], 0% HSA and EC50 [nM], 0.1% HSA data, which are given here for five molecules.

Starred links: 1 amine or outer side, 2 acyl side, 3 side chain; linkers in the order of their positions; H or OH if unused. Non-standard residues stand in square brackets, D forms with d. Residues, ends and D or L forms follow the SMILES beside them. Groups on a side chain read outwards from the residue. No end group written: not given here. *: point of attachment. C20 diacid = O=C(O)CCCCCCCCCCCCCCCCCCC(=O)*; C18 diacid = O=C(O)CCCCCCCCCCCCCCCCC(=O)*; γGlu = O=C(O)[C@H](CCC(=O)[*:2])N[*:1]; Palmitoyl = CCCCCCCCCCCCCCCC(=O)*; AEEA = NCCOCCOCC(=O)O; Aib = CC(C)(N)C(=O)O

One experiment addresses T1, human CRF2α receptor (Homo sapiens, UniProt Q13324).
T1 construct: expressed in transfected cells; host or cells: TeloHEAC
T1 sequence (Q13324 1-411): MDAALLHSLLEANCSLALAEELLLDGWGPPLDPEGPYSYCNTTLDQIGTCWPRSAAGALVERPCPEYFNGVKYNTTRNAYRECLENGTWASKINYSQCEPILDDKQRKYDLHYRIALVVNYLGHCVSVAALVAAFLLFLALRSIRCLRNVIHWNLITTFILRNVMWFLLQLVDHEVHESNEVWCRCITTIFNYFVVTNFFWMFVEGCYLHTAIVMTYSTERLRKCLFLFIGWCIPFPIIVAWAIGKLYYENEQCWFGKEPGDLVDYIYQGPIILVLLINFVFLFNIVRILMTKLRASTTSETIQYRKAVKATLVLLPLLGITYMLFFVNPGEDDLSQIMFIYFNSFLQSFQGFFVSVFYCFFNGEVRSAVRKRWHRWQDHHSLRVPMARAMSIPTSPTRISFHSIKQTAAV
In words: cAMP agonism at human CRF2 α receptor in TeloHEAC cells (Example 7). Conditions: cAMP HTRF, TeloHEAC cells stably expressing human CRF2 α, 0% HSA; read-out: EC50 [nM], 0% HSA. The class given is cell-based. As for the experimental part:
Agonism of compounds for human corticotropin-releasing factor 2α (CRF2 α receptor) was determined by functional assays measuring CAMP response of a TeloHEAC cell line stably expressing human CRF2 α receptor.
Cells were grown in a T175 culture flask placed at 37° C. to near confluence in medium (DMEM/10% FBS) and collected in 2 ml vials in cell culture medium containing 10% DMSO in a concentration of 10-50 million cells/ml. Each vial contained 1.8 ml cells. The vials were slowly frozen to −80° C. in isopropanol and then transferred in liquid nitrogen for storage. Prior to use, frozen cells were thawed quickly at 37° C. and washed (5 min at 900 rpm) with 20 ml cell buffer (1×HBSS; 20 mM HEPES; 0% or 0.1% HSA). Cells were resuspended in assay buffer (cell buffer plus 2 mM IBMX) and adjusted to a cell density of 1 million cells/ml. For measurement, 5 μl cells (final […]) and 5 μL of test compound were added to a 384-well plate, followed by incubation for 30 minutes at room temperature.
The CAMP content of cells was determined using a kit from Cisbio Corp. (cat. no. 62AM4PEC) based on HTRF (Homogenous Time Resolved Fluorescence). After addition of HTRF reagents diluted in lysis buffer (kit components), the plates were incubated for 1 h, followed by measurement of the fluorescence ratio at 665/620 nm. The percent activity value (E %) was calculated by setting 1000 nM of urocortin 2 (UCN2) as 100%. The in vitro potency of the compounds was quantified by determining the concentrations that caused 50% activation of maximal response (EC50).
For orientation: Time-resolved FRET reads energy transfer from a long-lived donor to a nearby acceptor.

For experiment [1], the target named is human corticotropin-releasing factor 2α (CRF2 α receptor) (human), Q13324. Put plainly: cell-based or functional assay.

Take `CCCCCCCCCCCCCCCC(=O)N[C@@H](CCC(=O)NCCCC[C@H](NC(=O)[C@H](CC(C)C)NC(=O)CNC(=O)[C@@H](NC(=O)[C@@H]1CCCN1C(=O)[C@@H](NC(=O)[C@H](CC(=O)O)NC(=O)[C@H](CC(C)C)NC(=O)[C@H](CO)NC(=O)[C@H](CC(C)C)NC(=O)[C@@H](NC(=O)[C@@H](N)[C@@H](C)CC)C(C)C)C(C)C)[C@@H](C)CC)C(=O)N[C@@H](CCC(N)=O)C(=O)N[C@H](C(=O)N[C@@H](CC(C)C)C(=O)N[C@@H](CC(C)C)C(=O)N[C@@H](CCC(=O)O)C(=O)N[C@@H](CCC(N)=O)C(=O)N[C@@H](CCC(=O)O)C(=O)N[C@@H](CCCCN)C(=O)N[C@@H](CCC(N)=O)C(=O)N[C@@H](CCC(=O)O)C(=O)N[C@@H](CCCCN)C(=O)N[C@@H](CCC(=O)O)C(=O)N[C@@H](CCCCN)C(=O)N[C@@H](CCC(N)=O)C(=O)N[C@@H](CCC(N)=O)C(=O)N[C@@H](C)C(=O)N[C@@H](CCC(=O)O)C(=O)N[C@H](C(=O)N[C@@H](CC(N)=O)C(=O)N[C@@H](C)C(=O)N[C@@H](CCC(N)=O)C(=O)N[C@H](C(=O)N[C@@H](CC(C)C)C(=O)N[C@@H](C)C(=O)N[C@@H](CCC(N)=O)C(=O)N[C@H](C(N)=O)C(C)C)[C@@H](C)CC)[C@@H](C)O)[C@@H](C)CC)C(=O)O` [compound 1] (H-IVLSLDVPIGLK([γGlu-Palmitoyl])QILLEQEKQEKEKQQAETNAQILAQV-NH2; N-terminus assumed): at human CRF2α receptor, the EC50 (usually the concentration giving half of the maximal effect) was determined as 0.01 nM.

B1: SEQ ID NO: 84 (peptide)
peptide: IVLSLDVPIKLK([AEEA-AEEA-γGlu-C18 diacid])QKLLEQEKQKKQREQAETNKQILAQV-NH2
modifications: N-terminus assumed
SMILES: CC[C@H](C)[C@H](N)C(=O)N[C@H](C(=O)N[C@@H](CC(C)C)C(=O)N[C@@H](CO)C(=O)N[C@@H](CC(C)C)C(=O)N[C@@H](CC(=O)O)C(=O)N[C@H](C(=O)N1CCC[C@H]1C(=O)N[C@H](C(=O)N[C@@H](CCCCN)C(=O)N[C@@H](CC(C)C)C(=O)N[C@@H](CCCCNC(=O)COCCOCCNC(=O)COCCOCCNC(=O)CC[C@H](NC(=O)CCCCCCCCCCCCCCCCC(=O)O)C(=O)O)C(=O)N[C@@H](CCC(N)=O)C(=O)N[C@@H](CCCCN)C(=O)N[C@@H](CC(C)C)C(=O)N[C@@H](CC(C)C)C(=O)N[C@@H](CCC(=O)O)C(=O)N[C@@H](CCC(N)=O)C(=O)N[C@@H](CCC(=O)O)C(=O)N[C@@H](CCCCN)C(=O)N[C@@H](CCC(N)=O)C(=O)N[C@@H](CCCCN)C(=O)N[C@@H](CCCCN)C(=O)N[C@@H](CCC(N)=O)C(=O)N[C@@H](CCCNC(=N)N)C(=O)N[C@@H](CCC(=O)O)C(=O)N[C@@H](CCC(N)=O)C(=O)N[C@@H](C)C(=O)N[C@@H](CCC(=O)O)C(=O)N[C@H](C(=O)N[C@@H](CC(N)=O)C(=O)N[C@@H](CCCCN)C(=O)N[C@@H](CCC(N)=O)C(=O)N[C@H](C(=O)N[C@@H](CC(C)C)C(=O)N[C@@H](C)C(=O)N[C@@H](CCC(N)=O)C(=O)N[C@H](C(N)=O)C(C)C)[C@@H](C)CC)[C@@H](C)O)[C@@H](C)CC)C(C)C)C(C)C
In experiment [1], B1 came in with an EC50 [nM], 0% HSA of 1.85 nM and an EC50 [nM], 0.1% HSA of 61.7 nM.

B2: SEQ ID NO: 81 (peptide)
peptide: IVLSLDVPIKLK([AEEA-AEEA-γGlu-C20 diacid])QILLEQEKQK[Aib]QREQAETNKQILAQV-NH2
modifications: N-terminus assumed
SMILES: CC[C@H](C)[C@H](N)C(=O)N[C@H](C(=O)N[C@@H](CC(C)C)C(=O)N[C@@H](CO)C(=O)N[C@@H](CC(C)C)C(=O)N[C@@H](CC(=O)O)C(=O)N[C@H](C(=O)N1CCC[C@H]1C(=O)N[C@H](C(=O)N[C@@H](CCCCN)C(=O)N[C@@H](CC(C)C)C(=O)N[C@@H](CCCCNC(=O)COCCOCCNC(=O)COCCOCCNC(=O)CC[C@H](NC(=O)CCCCCCCCCCCCCCCCCCC(=O)O)C(=O)O)C(=O)N[C@@H](CCC(N)=O)C(=O)N[C@H](C(=O)N[C@@H](CC(C)C)C(=O)N[C@@H](CC(C)C)C(=O)N[C@@H](CCC(=O)O)C(=O)N[C@@H](CCC(N)=O)C(=O)N[C@@H](CCC(=O)O)C(=O)N[C@@H](CCCCN)C(=O)N[C@@H](CCC(N)=O)C(=O)N[C@@H](CCCCN)C(=O)NC(C)(C)C(=O)N[C@@H](CCC(N)=O)C(=O)N[C@@H](CCCNC(=N)N)C(=O)N[C@@H](CCC(=O)O)C(=O)N[C@@H](CCC(N)=O)C(=O)N[C@@H](C)C(=O)N[C@@H](CCC(=O)O)C(=O)N[C@H](C(=O)N[C@@H](CC(N)=O)C(=O)N[C@@H](CCCCN)C(=O)N[C@@H](CCC(N)=O)C(=O)N[C@H](C(=O)N[C@@H](CC(C)C)C(=O)N[C@@H](C)C(=O)N[C@@H](CCC(N)=O)C(=O)N[C@H](C(N)=O)C(C)C)[C@@H](C)CC)[C@@H](C)O)[C@@H](C)CC)[C@@H](C)CC)C(C)C)C(C)C
In experiment [1], B2 had an EC50 [nM], 0% HSA of 0.14 nM and an EC50 [nM], 0.1% HSA of 18.5 nM.

B3: SEQ ID NO: 82 (peptide)
peptide: IVLSLDVPTKLK([AEEA-AEEA-γGlu-C18 diacid])QILLKQERQKK[Aib]REQAETNVRILERV-NH2
modifications: N-terminus assumed
SMILES: CC[C@H](C)[C@H](N)C(=O)N[C@H](C(=O)N[C@@H](CC(C)C)C(=O)N[C@@H](CO)C(=O)N[C@@H](CC(C)C)C(=O)N[C@@H](CC(=O)O)C(=O)N[C@H](C(=O)N1CCC[C@H]1C(=O)N[C@H](C(=O)N[C@@H](CCCCN)C(=O)N[C@@H](CC(C)C)C(=O)N[C@@H](CCCCNC(=O)COCCOCCNC(=O)COCCOCCNC(=O)CC[C@H](NC(=O)CCCCCCCCCCCCCCCCC(=O)O)C(=O)O)C(=O)N[C@@H](CCC(N)=O)C(=O)N[C@H](C(=O)N[C@@H](CC(C)C)C(=O)N[C@@H](CC(C)C)C(=O)N[C@@H](CCCCN)C(=O)N[C@@H](CCC(N)=O)C(=O)N[C@@H](CCC(=O)O)C(=O)N[C@@H](CCCNC(=N)N)C(=O)N[C@@H](CCC(N)=O)C(=O)N[C@@H](CCCCN)C(=O)N[C@@H](CCCCN)C(=O)NC(C)(C)C(=O)N[C@@H](CCCNC(=N)N)C(=O)N[C@@H](CCC(=O)O)C(=O)N[C@@H](CCC(N)=O)C(=O)N[C@@H](C)C(=O)N[C@@H](CCC(=O)O)C(=O)N[C@H](C(=O)N[C@@H](CC(N)=O)C(=O)N[C@H](C(=O)N[C@@H](CCCNC(=N)N)C(=O)N[C@H](C(=O)N[C@@H](CC(C)C)C(=O)N[C@@H](CCC(=O)O)C(=O)N[C@@H](CCCNC(=N)N)C(=O)N[C@H](C(N)=O)C(C)C)[C@@H](C)CC)C(C)C)[C@@H](C)O)[C@@H](C)CC)[C@@H](C)O)C(C)C)C(C)C
In experiment [1], B3 showed an EC50 [nM], 0% HSA of 10.1 nM.

B4: SEQ ID NO: 83 (peptide)
peptide: IVLSLD[dV]PIGLK([AEEA-AEEA-γGlu-C18 diacid])QILLKQERQKK[Aib]REQAETNKRILERV-NH2
modifications: N-terminus assumed
SMILES: CC[C@H](C)[C@H](N)C(=O)N[C@H](C(=O)N[C@@H](CC(C)C)C(=O)N[C@@H](CO)C(=O)N[C@@H](CC(C)C)C(=O)N[C@@H](CC(=O)O)C(=O)N[C@@H](C(=O)N1CCC[C@H]1C(=O)N[C@H](C(=O)NCC(=O)N[C@@H](CC(C)C)C(=O)N[C@@H](CCCCNC(=O)COCCOCCNC(=O)COCCOCCNC(=O)CC[C@H](NC(=O)CCCCCCCCCCCCCCCCC(=O)O)C(=O)O)C(=O)N[C@@H](CCC(N)=O)C(=O)N[C@H](C(=O)N[C@@H](CC(C)C)C(=O)N[C@@H](CC(C)C)C(=O)N[C@@H](CCCCN)C(=O)N[C@@H](CCC(N)=O)C(=O)N[C@@H](CCC(=O)O)C(=O)N[C@@H](CCCNC(=N)N)C(=O)N[C@@H](CCC(N)=O)C(=O)N[C@@H](CCCCN)C(=O)N[C@@H](CCCCN)C(=O)NC(C)(C)C(=O)N[C@@H](CCCNC(=N)N)C(=O)N[C@@H](CCC(=O)O)C(=O)N[C@@H](CCC(N)=O)C(=O)N[C@@H](C)C(=O)N[C@@H](CCC(=O)O)C(=O)N[C@H](C(=O)N[C@@H](CC(N)=O)C(=O)N[C@@H](CCCCN)C(=O)N[C@@H](CCCNC(=N)N)C(=O)N[C@H](C(=O)N[C@@H](CC(C)C)C(=O)N[C@@H](CCC(=O)O)C(=O)N[C@@H](CCCNC(=N)N)C(=O)N[C@H](C(N)=O)C(C)C)[C@@H](C)CC)[C@@H](C)O)[C@@H](C)CC)[C@@H](C)CC)C(C)C)C(C)C
In experiment [1], B4 registered an EC50 [nM], 0% HSA of 0.07 nM and an EC50 [nM], 0.1% HSA of 2.99 nM.
